Three molecules from publication PMC7954794, “Protein context shapes the specificity of SH3 domain-mediated interactions in vivo” (Nature Communications, 2021) can be followed below.

Common to all, as to assay type: cell-based, Saccharomyces cerevisiae
One assay relates to Hua2. Nature of the assay: Deep mutational scanning of Abp1 SH3, Abp1-Hua2 DHFR-PCA (DMS score). Put shortly: (§1)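 Each SH3 position is mutated to all possible codons within endogenous ABP1; the pooled strains are crossed to DHFR F[3]-tagged partners, diploids are enriched in NAT/HPH media, and two 72 h complementation selections at 30 °C follow, with Illumina counts of the locus yielding the score.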

The test system of the next assay is Lsb3. Description: Deep mutational scanning of Abp1 SH3, Abp1-Lsb3 DHFR-PCA (DMS score). The method in brief:
as §1

Assay [1] deals with Hua2 and Lsb3. Description: Classification of Abp1 SH3 mutations by effect on Hua2 and Lsb3 DMS scores (quadrant). The settings on record: class of mutation by Hua2 and Lsb3 DMS scores (Dest. both, Dest. Hua2, Dest. Lsb3, Neutral).
In assay [2] the test system is Hua2 and Lsb3. Nature of the assay: Classification of Abp1 SH3 mutants by DMS scores with Hua2 and Lsb3 (quadrant). The settings on record: class by DMS scores with Hua2 and Lsb3 (Dest. both, Dest. Hua2, Dest. Lsb3, Neutral).

B1: ABP1 A11A (protein, UniProt P15891 2-592, looked up)
Actin-binding protein: ALEPIDYTTHSREIDAEYLKIVRGSDPDTTWLIISPNAKKEYEPESTGSSFHDFLQLFDETKVQYGLARVSPPGSDVEKIIIIGWCPDSAPLKTRASFAANFAAVANNLFKGYHVQVTARDEDDLDENELLMKISNAAGARYSIQTSSKQQGKASTPPVKKSFTPSKSPAPVSKKEPVKTPSPAPAAKISSRVNDNNDDDDWNEPELKERDFDQAPLKPNQSSYKPIGKIDLQKVIAEEKAKEDPRLVQKPTAAGSKIDPSSDIANLKNESKLKRDSEFNSFLGTTKPPSMTESSLKNDDDKVIKGFRNEKSPAQLWAERKAKQNSGNAETKAEAPKPEVPEDEPEGEPDVKDLKSKFEGLAASEKEEEEMENKFAPPPKKSEPTIISPKPFSKPQEPVKAEEAEQPKTDYKKIGNPLPGMHIEADNEEEPEENDDDWDDDEDEAAQPPLPSRNVASGAPVQKEEPEQEEIAPSLPSRNSIPAPKQEEAPEQAPEEEIEEEAEEAAPQLPSRSSAAPPPPPRRATPEKKPKENPWATAEYDYDAAEDNELTFVENDKIINIEFVDDDWWLGELEKDGSKGLFPSNYVSLGN
modifications: synonymous codon change A11A in SH3
In the case of B1, in the assay with Hua2 (Abp1-Hua2, frequencies scaled to the synonymous mutation distribution), the “hua2sc (DMS score)” value stood at 0.2975. In addition, in the assay on Hua2 (Abp1 SH3 DMS, Abp1-Hua2 DHFR-PCA, MTX2, frequencies normalized to the reference condition), the “HUA2_MTX2 (frequency normalized to the reference condition)” value is given as 1.91. Further, the “lsb3sc (DMS score)” value in the assay with Lsb3 (Abp1-Lsb3, frequencies scaled to the synonymous mutation distribution) was determined as 0.4621. The “LSB3_MTX2 (frequency normalized to the reference condition)” value with Lsb3 (Abp1 SH3 DMS, Abp1-Lsb3 DHFR-PCA, MTX2, frequencies normalized to the reference condition) was 1.962. Further, in the assay on Hua2 and Lsb3 [1], the quadrant entry was “Neutral”.

B2: ABP1 V31V (protein, UniProt P15891 2-592, looked up)
Actin-binding protein: ALEPIDYTTHSREIDAEYLKIVRGSDPDTTWLIISPNAKKEYEPESTGSSFHDFLQLFDETKVQYGLARVSPPGSDVEKIIIIGWCPDSAPLKTRASFAANFAAVANNLFKGYHVQVTARDEDDLDENELLMKISNAAGARYSIQTSSKQQGKASTPPVKKSFTPSKSPAPVSKKEPVKTPSPAPAAKISSRVNDNNDDDDWNEPELKERDFDQAPLKPNQSSYKPIGKIDLQKVIAEEKAKEDPRLVQKPTAAGSKIDPSSDIANLKNESKLKRDSEFNSFLGTTKPPSMTESSLKNDDDKVIKGFRNEKSPAQLWAERKAKQNSGNAETKAEAPKPEVPEDEPEGEPDVKDLKSKFEGLAASEKEEEEMENKFAPPPKKSEPTIISPKPFSKPQEPVKAEEAEQPKTDYKKIGNPLPGMHIEADNEEEPEENDDDWDDDEDEAAQPPLPSRNVASGAPVQKEEPEQEEIAPSLPSRNSIPAPKQEEAPEQAPEEEIEEEAEEAAPQLPSRSSAAPPPPPRRATPEKKPKENPWATAEYDYDAAEDNELTFVENDKIINIEFVDDDWWLGELEKDGSKGLFPSNYVSLGN
modifications: synonymous codon change V31
Take B2: in the assay on Hua2 (Abp1-Hua2 DHFR-PCA, MTX2), the “hua2sc (frequencies scaled to the synonymous mutation distribution, DMS score)” value is given as -0.7307 and the “HUA2_MTX2 (frequencies normalized to the reference condition)” value came to 0.882. Moreover, in the assay on Lsb3 (Abp1-Lsb3 DHFR-PCA, MTX2), the “lsb3sc (frequencies scaled to the synonymous mutation distribution, DMS score)” value is reported as -0.4906 and the “LSB3_MTX2 (frequencies normalized to the reference condition)” value came out at 1.01. Besides, the quadrant entry with Hua2 and Lsb3 [2] is reported as “Neutral”.

B3: ABP1 D32D (protein, UniProt P15891 2-592, looked up)
Actin-binding protein: ALEPIDYTTHSREIDAEYLKIVRGSDPDTTWLIISPNAKKEYEPESTGSSFHDFLQLFDETKVQYGLARVSPPGSDVEKIIIIGWCPDSAPLKTRASFAANFAAVANNLFKGYHVQVTARDEDDLDENELLMKISNAAGARYSIQTSSKQQGKASTPPVKKSFTPSKSPAPVSKKEPVKTPSPAPAAKISSRVNDNNDDDDWNEPELKERDFDQAPLKPNQSSYKPIGKIDLQKVIAEEKAKEDPRLVQKPTAAGSKIDPSSDIANLKNESKLKRDSEFNSFLGTTKPPSMTESSLKNDDDKVIKGFRNEKSPAQLWAERKAKQNSGNAETKAEAPKPEVPEDEPEGEPDVKDLKSKFEGLAASEKEEEEMENKFAPPPKKSEPTIISPKPFSKPQEPVKAEEAEQPKTDYKKIGNPLPGMHIEADNEEEPEENDDDWDDDEDEAAQPPLPSRNVASGAPVQKEEPEQEEIAPSLPSRNSIPAPKQEEAPEQAPEEEIEEEAEEAAPQLPSRSSAAPPPPPRRATPEKKPKENPWATAEYDYDAAEDNELTFVENDKIINIEFVDDDWWLGELEKDGSKGLFPSNYVSLGN
modifications: synonymous D32D codon change
Turning to B3, in the assay on Hua2 (Abp1-Hua2 DHFR-PCA, MTX2), the “hua2sc (frequencies scaled to the synonymous mutation distribution, DMS score)” value is listed as -0.3604 and the “HUA2_MTX2 (frequencies normalized to the reference condition)” value was determined as 1.252. Moreover, in the assay on Lsb3 (Abp1-Lsb3 DHFR-PCA, MTX2), the “lsb3sc (frequencies scaled to the synonymous mutation distribution, DMS score)” value is given as -0.4014 and the “LSB3_MTX2 (frequencies normalized to the reference condition)” value is reported as 1.099. Also, the quadrant result in the assay with Hua2 and Lsb3 [2] is listed as “Neutral”.
